Data on 68 variants can be found in the RNAGym collection of RNA variant scans (doi:10.1093/nar/gkz1192).

The chains are these.
B1: CPEB3 Ribozyme (parent)
chain: UAACAGGGGGCCACAGCAGAAGCGUUCACGUCGCAGCCCCUGUCAGAUUCUGGUGAAUCUGCGAAUUCUGCUGUAUAUCUC

In the series the parent is B1. Put plainly: self-cleavage, relative activity (ratio to wild type); higher = more cleavage; in vitro, sequencing. A digest of the protocol: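 Relative activity compares each variant's cleaved/total read fraction with that of the unmutated ribozyme. To get these fractions, barcoded CPEB3 ribozyme libraries from rounds of error-prone PCR were transcribed with T7 RNA polymerase for 5 hours at 37°C and then given 15 min of DNase I treatment before EDTA was added. The RNAs were reverse transcribed with template switching and sequenced on Illumina, and DNA sequencing linked barcodes to variants. A minimum of 5 reads applied, and three batches were averaged.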
Take UAACAGGAGGCCACAGCAGAAGCGUUCACGUCGCAGCCCCUGUCAGAUUCUGGUGAAUCUGCGUAUUCUGCUGUAUAUCUC: the self-cleavage came out at 0.27.
As to UAACAGGAGGCCACAGCAGAAGCGUUCACGUCGCAGCCCCUGUCAGAUUCUGGUGAAUCUGCGGAUUCUGCUGUAUAUCUC, the self-cleavage amounted to 0.22.
Take UAACAGGAGGCCACAGCAGAAGUGUUCACGUCGCAGCCCCUGUCAGAUUCUGGUGAAUCUGCGAAUUCUGCUGUAUAUCUC: the self-cleavage was 0.07.
UAACAGGAGGCCACAGCAGAAGAGUUCACGUCGCAGCCCCUGUCAGAUUCUGGUGAAUCUGCGAAUUCUGCUGUAUAUCUC: the self-cleavage amounted to 0.06.
For UAACAGGAGGCCACAGCAGAAGCGUUCACGUCGCAGCCCCUGUCAGAUUCUGGUGAAUCUGCGAAUUCUGCUGUGUAUCUC the value was 0.21; for UAACAGGAGGCCACAGCAGAAGCGUUCACGUCGCAGCCCCUGUCAGAUUCUGGUGAAUCUGCGAAUUCUGCUGUUUAUCUC, 0.24.
In the case of UAACAGGAGGCCACAGCAGAAGCGUUUACGUCGCAGCCCCUGUCAGAUUCUGGUGAAUCUGCGAAUUCUGCUGUAUAUCUC, the self-cleavage stood at 0.08.
As for UAACAGGAGGCCGCAGCAGAAGCGUUCACGUCGCAGCCCCUGUCAGAUUCUGGUGAAUCUGCGAAUUCUGCUGUAUAUCUC, the figure is 0.44; as for UAACAGGAGGCCUCAGCAGAAGCGUUCACGUCGCAGCCCCUGUCAGAUUCUGGUGAAUCUGCGAAUUCUGCUGUAUAUCUC, 0.3.
For UAACAGGAGGCCACAGCAGAAGCGUUCACGUCGCAGCCCCUGUCAGAUUCUGGUGUAUCUGCGAAUUCUGCUGUAUAUCUC, the self-cleavage amounted to 0.38.
In the case of UAACAGGAGGCCACAGCAGAAGCGUUCACGUCGCAGCCCCUGUCAGAUUCUGGUGGAUCUGCGAAUUCUGCUGUAUAUCUC, the self-cleavage was determined as 0.24.
Turning to UAACAGGAGGCCACAGCAGAAGCGUUCACGUCGCAGCCCCUGUCAGAUUCUGGUGCAUCUGCGAAUUCUGCUGUAUAUCUC, the self-cleavage is 0.24.
For UAACAGGAGGCCACAGCAGAAGCGUUCAUGUCGCAGCCCCUGUCAGAUUCUGGUGAAUCUGCGAAUUCUGCUGUAUAUCUC, the self-cleavage amounted to 0.24.
Turning to UAACAGUGGGCCACAGCAGAAGCGUUCACGUCGCAGCCCCUGUCAGAUUCUGGUGAAUCUGCGAAUCCUGCUGUAUAUCUC, the self-cleavage was 0.25.
As for UAACAGGAGGCCACAGCAGAAGCGUUCACGUAGCAGCCCCUGUCAGAUUCUGGUGAAUCUGCGAAUUCUGCUGUAUAUCUC, the figure is 0.2.
In the case of UAACAGGAGGCCACUGCAGAAGCGUUCACGUCGCAGCCCCUGUCAGAUUCUGGUGAAUCUGCGAAUUCUGCUGUAUAUCUC, the self-cleavage is 0.16.
As for UAACAGGAGGCCACCGCAGAAGCGUUCACGUCGCAGCCCCUGUCAGAUUCUGGUGAAUCUGCGAAUUCUGCUGUAUAUCUC, the figure is 0.31.
For UAACAGGAGGCCACGGCAGAAGCGUUCACGUCGCAGCCCCUGUCAGAUUCUGGUGAAUCUGCGAAUUCUGCUGUAUAUCUC, the self-cleavage was 0.3.
For UAACAGGAGGCCACAGCAGAAGCGUUCACGUCGCAGCCCCUGUUAGAUUCUGGUGAAUCUGCGAAUUCUGCUGUAUAUCUC, the self-cleavage came out at 0.08.
For UAACAGGAGGCCACAGCAGAAGCGUUCACGUCGCAGCCCCUGUAAGAUUCUGGUGAAUCUGCGAAUUCUGCUGUAUAUCUC the value was 0.26; for UAACAGGAGGCCAUAGCAGAAGCGUUCACGUCGCAGCCCCUGUCAGAUUCUGGUGAAUCUGCGAAUUCUGCUGUAUAUCUC, 0.08; for UAACAGGAGGCCAGAGCAGAAGCGUUCACGUCGCAGCCCCUGUCAGAUUCUGGUGAAUCUGCGAAUUCUGCUGUAUAUCUC, 0.38.
As for UAACAGGAGGCCACAGCAGAAGCGUUCACGUCGCAGCCCCUGUCAGAUUCUGGUGAAUAUGCGAAUUCUGCUGUAUAUCUC, the figure is 0.06.
As for UAACAGGAGGCCACAGCAGAAGCGUUCACGUCGCAGCCCCUGUCAGAUUCUGGUGAAUCUGUGAAUUCUGCUGUAUAUCUC, the figure is 0.22; as for UAACAGGAGGCCACAGCAGAAGCGUUCACGUCGCAGCCCCUGUCAGAUUCUGGUGAAUCUGAGAAUUCUGCUGUAUAUCUC, 0.07.
For UAACAGGAGGCCACAGCAGAAGCGUUCACGUCGCAGCCCCUGUCAGAUUCUGGUGAAUCUGCGAAUUCUGCUGUAUAUCUC, the self-cleavage came to 0.27.
For the variant UAACAGGAGGCCACAGCAGAGGCGUUCACGUCGCAGCCCCUGUCAGAUUCUGGUGAAUCUGCGAAUUCUGCUGUAUAUCUC, the self-cleavage worked out at 0.28.
As for UAACAGGAGGCCACAGCAGAAGCGUUCACGUCGCAGCCCCUGUCAGAUUCUGGUGAAUCUGCGAAUUCUGCUGUAUUUCUC, the self-cleavage was determined as 0.18.
On to UAACAGGAGGCCACAGCAGAAGCGUUCACGUCGCAGCCCCUGUCAGAUUCUGGUGAAUCUGCGAAUUCUGCUGUAUCUCUC, for which the self-cleavage was 0.09.
On to UAACAGGAGGCCACAGCAGAAGCGUUCACGUCGCAGCCCCUGUCAGAUUCUGGUGAAUCUGCGAAUUCUGCUGUAUGUCUC, for which the self-cleavage worked out at 0.23.
As for UAACAGGAGGCCACAGCAGAAGCGUUCACGUCGCAGCUCCUGUCAGAUUCUGGUGAAUCUGCGAAUUCUGCUGUAUAUCUC, the figure is 0.08; as for UAACAGUGGGCCACAGCAGAAGCGUUCACGUCGCAGCCCCUGUCAGAUUCUGGUGAAUCUGCGAAUUCUGCCGUAUAUCUC, 0.25.
As for UAACAGUGGGCCACAGCAGAAGCGUUCACGUCGCAGCCCCUGUCAGAUUCUGGUGAAUCUGCGAAUUCUGCGGUAUAUCUC, the figure is 0.07; as for UAACAGUGGGCCACAGCAGAAGCGUUCACGUCGCAGCCCCUGUCAGAUUCUGGUGAAUCUGCGAACUCUGCUGUAUAUCUC, 0.17; as for UAACAGUGGGCCACAGCAGAAGCGUUCACGUCGCAGCCCCUGUCAGAUUCUGGUGAAUCUGCGAAUUCUGCUGUAUAUCCC, 0.27.
For UAACAGGAGGCCACAGCAGAAGCGUUCACGUCGCAGCCGCUGUCAGAUUCUGGUGAAUCUGCGAAUUCUGCUGUAUAUCUC the value was 0.06; for UAACAGGAGGCCACAGCAGAAGCGUUCACGUCGCAGCCACUGUCAGAUUCUGGUGAAUCUGCGAAUUCUGCUGUAUAUCUC, 0.21; for UAACAGGAGGCCACAGCAGAAGCGUUCACGUCGUAGCCCCUGUCAGAUUCUGGUGAAUCUGCGAAUUCUGCUGUAUAUCUC, 0.39.
With UAACAGGAGGCCACAGCAGAAGCGUUCACGUCGCAGUCCCUGUCAGAUUCUGGUGAAUCUGCGAAUUCUGCUGUAUAUCUC, the self-cleavage amounted to 0.05.
As for UAACAGGAGGCCACAGCAGAAGCGUUCACGUCGCAGACCCUGUCAGAUUCUGGUGAAUCUGCGAAUUCUGCUGUAUAUCUC, the figure is 0.15.
For UAACAGGAGGCCACAGCAGAAGCGUUCACGUCGCAGCCCCUGUCAGUUUCUGGUGAAUCUGCGAAUUCUGCUGUAUAUCUC, the self-cleavage was 0.2.
As for UAACAGGAGGCCACAGCAGAAGCGUUCACGUCGCAGCCCCUGUCAGGUUCUGGUGAAUCUGCGAAUUCUGCUGUAUAUCUC, the self-cleavage was 0.23.
For UAACAGGAGGCCACAGCAGAAGCGUUCACGUCGCAGCCCCUGUCAGAUUUUGGUGAAUCUGCGAAUUCUGCUGUAUAUCUC, the self-cleavage was determined as 0.12.
As for UAACAGGAGGCCACAGCAGAAGCGUUCGCGUCGCAGCCCCUGUCAGAUUCUGGUGAAUCUGCGAAUUCUGCUGUAUAUCUC, the figure is 0.23.
UAACAGGAGGCCACAGCAGAAGCGUUCUCGUCGCAGCCCCUGUCAGAUUCUGGUGAAUCUGCGAAUUCUGCUGUAUAUCUC: the self-cleavage is 0.14.
For UAACAGGAGGCCACAGCAGAAGCGUUCACGUCGCCGCCCCUGUCAGAUUCUGGUGAAUCUGCGAAUUCUGCUGUAUAUCUC, the self-cleavage stood at 0.21.
For UAACAGGAGGCCACAGCAGAAGCGUUCACGUCGCGGCCCCUGUCAGAUUCUGGUGAAUCUGCGAAUUCUGCUGUAUAUCUC the value was 0.5; for UAACAGGAGGCCACAGCAGAAGCGUUCACGUCGCUGCCCCUGUCAGAUUCUGGUGAAUCUGCGAAUUCUGCUGUAUAUCUC, 0.14.
Take UAACAGUGGGCCACAGCAGAAGCGUUCACGUCGCAGCCCCUGUCAGAUUCUGGUGAAUCUGCGAAUUCUGCUGCAUAUCUC: the self-cleavage amounted to 0.46.
For UAACAGUGGGCCACAGCAGAAGCGUUCACGUCGCAGCCCCUGUCAGAUUCUGGUGAAUCUGCGAAUUCUGCUGAAUAUCUC the value was 0.22.
As for UAACAGGAGGCCACAGCAGUAGCGUUCACGUCGCAGCCCCUGUCAGAUUCUGGUGAAUCUGCGAAUUCUGCUGUAUAUCUC, the figure is 0.22; as for UAACAGGAGGCCACAGCAGGAGCGUUCACGUCGCAGCCCCUGUCAGAUUCUGGUGAAUCUGCGAAUUCUGCUGUAUAUCUC, 0.25; as for UAACAGGAGGCCACAGCAGAAGCGUUCACGUCGCAGCCCCUGUCAGAUUCUGGUGAUUCUGCGAAUUCUGCUGUAUAUCUC, 0.11.
For UAACAGGAGGCCACAGCAGAAGCGUUCACGUCGCAGCCCCUGUCAGAUUCUGGUGAGUCUGCGAAUUCUGCUGUAUAUCUC the value was 0.26; for UAACAGGAGGCCACAGCAGAAGCGUUCACGUCGCAGCCCCUGUCUGAUUCUGGUGAAUCUGCGAAUUCUGCUGUAUAUCUC, 0.06.
As for UAACAGGAGGCCACAGCAGAAGCGUUCACGUCGCAGCCCCUGUCGGAUUCUGGUGAAUCUGCGAAUUCUGCUGUAUAUCUC, the self-cleavage worked out at 0.29.
As for UAACAGGAGGCGACAGCAGAAGCGUUCACGUCGCAGCCCCUGUCAGAUUCUGGUGAAUCUGCGAAUUCUGCUGUAUAUCUC, the self-cleavage stood at 0.09.
For UAACAGGAGGCCACAGCAGAAGCGUUCACGUCGCAGCCCAUGUCAGAUUCUGGUGAAUCUGCGAAUUCUGCUGUAUAUCUC, the self-cleavage amounted to 0.16.
On to UAACAGGAGGCCACAGCAGAAGCGUUCACGUCGCAGCCCUUGUCAGAUUCUGGUGAAUCUGCGAAUUCUGCUGUAUAUCUC, for which the self-cleavage was found to be 0.14.
Take UAACAGGAGGCCACAGUAGAAGCGUUCACGUCGCAGCCCCUGUCAGAUUCUGGUGAAUCUGCGAAUUCUGCUGUAUAUCUC: the self-cleavage turned out to be 0.25.
On to UAACAGUGGGCCACAGCAGAAGCGUUCACGUCGCAGCCCCUGUCAGAUUCUGGUGAAUCUGCGAAUUCCGCUGUAUAUCUC, for which the self-cleavage was 0.19.
Take UAACAGUGGGCCACAGCAGAAGCGUUCACGUCGCAGCCCCUGUCAGAUUCUGGUGAAUCUGCGAAUUCAGCUGUAUAUCUC: the self-cleavage is 0.2.
For UAACAGGAGGCCACAGCAGAAGCGUUCACGUCGCAGCCCCUGUCAGAUUCUGGUGAAUCUGCGAGUUCUGCUGUAUAUCUC the value was 0.14; for UAACAGGAGGCCACAGCAGAAGCGUUCACGUCGCAGCCCCUGUCAGAUUCUGGUGAAUCUGCGAUUUCUGCUGUAUAUCUC, 0.06.
UAACAGUGGGCCACAGCAGAAGCGUUCACGUCGCAGCCCCUGUCAGAUUCUGGUGAAUCUGCGAAUUCUGCUGUAUACCUC: the self-cleavage worked out at 0.13.
For the variant UAACAGUGGGCCACAGCAGAAGCGUUCACGUCGCAGCCCCUGUCAGAUUCUGGUGAAUCUGCGAAUUCUGCUGUAUAACUC, the self-cleavage was 0.48.
For UAACAGGAGGCCACAGCUGAAGCGUUCACGUCGCAGCCCCUGUCAGAUUCUGGUGAAUCUGCGAAUUCUGCUGUAUAUCUC the value was 0.07; for UAACAGGAGGCCACAGCGGAAGCGUUCACGUCGCAGCCCCUGUCAGAUUCUGGUGAAUCUGCGAAUUCUGCUGUAUAUCUC, 0.21.
